Assay results published in US20200172905, “RNA APTAMERS AGAINST TRANSFERRIN RECEPTOR (TFR)” (CITY OF HOPE, published 2020).

Biological target: Transferrin receptor (TfR, TFRC) (UniProt P02786 SEQ:89-760)
Assay: SPR; value only in figure, stated to be in similar range to TR14; Biacore T100, biotinylated aptamer on SA chip, 30 mM Tris-HCl pH 7.5, 150 mM NaCl, 5 mM MgCl2
Settings: SELEX was against the extracellular domain; chain copies: 2; label: biotin (SPR), Cy3 (cell imaging)
Procedure: The kinetics of TR14 S1-3 were analysed by surface plasmon resonance (SPR) technology. The Biacore T100 (GE Healthcare, Uppsala, Sweden) was used to monitor label-free the aptamer-transferrin receptor interactions in real time. Biotinylated aptamers were coupled to a streptavidin-coated Biocore chip (SensorChip SA, BR-1003-98, General Electric Company) by an injection in binding buffer at concentration of 25 μg/mL (30 mM Tris-HCl, pH 7.5, 150 mM NaCl, 5 mM MgCl2) at 10 uL/min. The RNA was refolded by heating to 65° C. followed by cooling to 37° C. before immobilization. To measure binding kinetics, five concentrations of purified transferrin receptor protein were injected at a flow rate of 10 uL per minute. After binding, the surface was regenerated by injecting 50 mM NaOH at flow rate of 15 μL per minutes for 20 seconds. Data from the control surface were subtracted. BlAevaluation software (GE Healthcare) was used for analysis. The binding data were fit to a 1:1 binding with a mass transfer model to calculate kinetic parameters.

Sequence of Transferrin receptor (TfR, TFRC) (P02786 89-760): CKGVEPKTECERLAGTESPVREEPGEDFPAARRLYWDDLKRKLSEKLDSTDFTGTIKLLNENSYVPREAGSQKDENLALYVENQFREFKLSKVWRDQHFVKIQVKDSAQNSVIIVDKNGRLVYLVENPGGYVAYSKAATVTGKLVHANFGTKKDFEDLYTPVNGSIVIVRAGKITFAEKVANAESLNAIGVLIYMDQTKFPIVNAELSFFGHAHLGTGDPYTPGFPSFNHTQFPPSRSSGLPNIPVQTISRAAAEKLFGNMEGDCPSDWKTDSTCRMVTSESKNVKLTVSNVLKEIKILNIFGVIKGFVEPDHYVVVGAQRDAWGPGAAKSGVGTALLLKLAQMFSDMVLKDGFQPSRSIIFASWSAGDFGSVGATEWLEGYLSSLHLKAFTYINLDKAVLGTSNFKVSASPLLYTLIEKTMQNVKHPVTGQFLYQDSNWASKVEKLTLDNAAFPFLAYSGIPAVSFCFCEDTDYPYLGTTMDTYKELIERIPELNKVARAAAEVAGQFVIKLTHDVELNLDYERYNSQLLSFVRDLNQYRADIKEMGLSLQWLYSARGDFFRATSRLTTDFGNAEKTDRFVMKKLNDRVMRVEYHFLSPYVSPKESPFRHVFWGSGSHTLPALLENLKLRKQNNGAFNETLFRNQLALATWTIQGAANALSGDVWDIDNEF

B1: TR14 S1-3 (22-mer) (ssRNA)
RNA: UUUAUUCACAUUUUUGAAUUGA
modifications: 2'-F (library of 2'F RNAs; positions not stated)
B1: binds.
